Common to all, as to assay: radioligand binding
The target of assay [1] is Acetylcholine binding protein from Aplysia californica (Aplysia californica).
The target of assay [2] is Acetylcholine binding protein from Lymnaea stagnalis (Lymnaea stagnalis) (UniProt P58154).
The target of assay [3] is Muscle-type nAChR from the electric organs of Torpedo californica (Torpedo californica (endogenous in electric organ)).
For a further assay, the target named is human α7 nAChR (human) (UniProt P36544).
The target in assay [4] is T1, Acetylcholine binding protein from Lymnaea stagnalis (Lymnaea stagnalis, UniProt P58154 20-229).
T1 construct: also called AChBP L. stagnalis; L. stagnalis AChBP
To be noted: both partners purified.

The next assay addresses T2, human α7 nAChR (human, UniProt P36544 23-502).
T2 construct: also called hα7 nAChR
The following applies: one partner purified.

The values that follow come from PMC7924340 (Toxins, 2021).

A word on the IC50: it is the point on the concentration scale where inhibition reaches its midpoint. Read a high IC50 as weaker potency.

T2 sequence (P36544 23-502): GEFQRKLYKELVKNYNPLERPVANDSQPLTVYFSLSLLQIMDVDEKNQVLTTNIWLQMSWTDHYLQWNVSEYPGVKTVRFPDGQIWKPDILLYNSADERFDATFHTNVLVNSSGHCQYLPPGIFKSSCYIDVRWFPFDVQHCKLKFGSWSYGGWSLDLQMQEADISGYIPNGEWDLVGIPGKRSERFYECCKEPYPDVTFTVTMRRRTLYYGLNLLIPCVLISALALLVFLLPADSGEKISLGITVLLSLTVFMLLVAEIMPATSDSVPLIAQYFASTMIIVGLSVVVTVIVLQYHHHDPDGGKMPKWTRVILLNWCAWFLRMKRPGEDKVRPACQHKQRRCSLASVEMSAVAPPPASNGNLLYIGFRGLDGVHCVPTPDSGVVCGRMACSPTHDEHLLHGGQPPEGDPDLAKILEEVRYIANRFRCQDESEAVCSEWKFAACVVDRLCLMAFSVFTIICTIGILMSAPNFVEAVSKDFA

Regarding “Tx-NM3-1 (from UniProt P01388 1-71) (natural protein)”, the IC50 in assay [1] amounted to 3200 nM; in assay [2], 203 nM; in assay [3], 1.61 nM; in the assay with human α7 nAChR (human), 4.84 nM.
“α-bungarotoxin from krait Bungarus multicinctus venom (from UniProt P60615 22-95) (natural protein)”: in assay [1], the IC50 turned out to be 155 nM.

B1: Long type neurotoxin I from cobra N. oxiana (natural protein)
chain: ITCYKTPIPITSETCAPGQNLCYTKTWCDAWCGSRGKVIELGCAATCPTVESYQDIKCCSTDDCNPHPKQKRP
In the case of B1, the figures for the IC50 in assay [1] and in assay [4] were 1200 nM and 73.4 ± 1.3 nM, respectively.

B2: Tx-NM4 (natural protein)
chain: IRCFITPDVTSQICADGHVCYTKTWCDNFCASRGKRVDLGCAATCPTVKPGVNIKCCSTDNCNPFPTRNRP
For B2, the IC50 in assay [1] is 2350 nM; in assay [3], 2.17 nM; with human α7 nAChR, 26.9 nM; in assay [4], 1160 ± 40 nM.

B3: α-bungarotoxin from krait Bungarus multicinctus venom (natural protein)
chain: IVCHTTATSPISAVTCPPGENLCYRKMWCDAFCSSRGKVVELGCAATCPSKKPYEEVTCCSTDKCNPHPKQRPG
Consider B3, for which the IC50 in assay [4] is 17.2 ± 0.7 nM.
